Tests used:
[1] = target: T1, human DLL3 (Delta-like ligand 3) (human, UniProt Q9NYJ7 27-618); assay: flow cytometry, SHP-77 cells
T1 construct: endogenous on SHP-77 cells; also called cell-surface DLL3
T1 sequence: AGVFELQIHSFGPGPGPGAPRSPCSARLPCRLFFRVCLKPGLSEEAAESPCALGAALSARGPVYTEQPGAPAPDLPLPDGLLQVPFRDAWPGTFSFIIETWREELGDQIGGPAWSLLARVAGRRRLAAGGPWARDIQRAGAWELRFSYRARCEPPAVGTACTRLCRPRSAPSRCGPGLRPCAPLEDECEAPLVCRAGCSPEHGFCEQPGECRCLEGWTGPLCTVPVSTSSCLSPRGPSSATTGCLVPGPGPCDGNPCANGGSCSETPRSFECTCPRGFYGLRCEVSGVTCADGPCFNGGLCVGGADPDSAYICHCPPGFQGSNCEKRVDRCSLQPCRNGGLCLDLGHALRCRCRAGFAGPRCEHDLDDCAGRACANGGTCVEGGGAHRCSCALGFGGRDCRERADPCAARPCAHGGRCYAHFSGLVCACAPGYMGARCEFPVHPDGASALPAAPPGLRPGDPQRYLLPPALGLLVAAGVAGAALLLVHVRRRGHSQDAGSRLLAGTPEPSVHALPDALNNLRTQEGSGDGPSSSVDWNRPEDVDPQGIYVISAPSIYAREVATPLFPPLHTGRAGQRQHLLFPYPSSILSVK

[2] = target: T1, human DLL3 (Delta-like ligand 3); assay: flow cytometry, sdAb-Fc titrated on SHP-77 cells (DLL3 positive), APC anti-human Fc secondary
Description: FIGS. 2A-L set forth a series of graphs depicting the ability of sdAb and humanized variants thereof targeting DLL3 to bind cell surface DLL3.
Specificity and relative affinity were assessed for purified sdAb-Fcs on DLL3-expressing cells. […] A titration series of the fusion protein was incubated with the DLL3-expressing cell lines (approximately 2.5×10⁴ to 5×10⁴ cells/well) for 30 minutes at 4 degrees Celsius in FACS Buffer (PBS 1% BSA, 0.1% NaN₃ pH 7.4) in 96-well plates. Following three wash steps in FACS buffer, an APC-conjugated anti-human Fcγ specific secondary antibody (Jackson ImmunoResearch) was added and incubated for 30 minutes at 4 degrees Celsius. Following three additional wash steps in FACS buffer bound antibody was detected via flow cytometry (IQue Intellicyte).

B1: hz10D9v8 (Fc fusion)
VHH: EVQLVESGGGEVQPGGSLRLSCAASGFTFSINAMGWYRQAPGKQRELVAGFTGDTNTIYAESVKGRFTISRDNAKNTVYLQMSSLRAEDTAVYYCAADVQLFSRDYEFYWGQGTLVTVKP
notes: tested as VHH-human Fc; Fc not specified
B1: binds [1].

B2: hz10D9v13 (Fc fusion)
VHH: EVQLVESGGGEVQPGGSLRLSCAASGFIFSINAMGWYRQAPGKQRELVAGFTGDTNTIYAESVKGRFTISRDNAKNTVYLQMSSLRAEDTAVYYCAADVQLFSRDYEFYWGQGTLVTVKP
notes: as for B1
B2: binds [1].

B3: hz10D9v10 (Fc fusion)
VHH: EVQLVESGGGEVQPGGSLRLSCAASGSIFSSNAMGWYRQAPGKQRELVAGFTGDTNTIYAESVKGRFTISRDNAKNTVYLQMSSLRAEDTAVYYCAADVQLFSRDYEFYWGQGTLVTVKP
notes: as for B1
B3: binds [1].

B4: hz10D9v9 (Fc fusion)
VHH: EVQLVESGGGEVQPGGSLRLSCAASGFTFSSYAMGWYRQAPGKQRELVAGFTGDTNTIYAESVKGRFTISRDNAKNTVYLQMSSLRAEDTAVYYCAADVQLFSRDYEFYWGQGTLVTVKP
notes: as for B1
B4: binds [1].

B5: hz10D9v12 (Fc fusion)
VHH: EVQLVESGGGEVQPGGSLRLSCAASGSIFSIYAMGWYRQAPGKQRELVAGFTGDTNTIYAESVKGRFTISRDNAKNTVYLQMSSLRAEDTAVYYCAADVQLFSRDYEFYWGQGTLVTVKP
notes: as for B1
B5: binds [1].

B6: hz10D9v11 (Fc fusion)
VHH: EVQLVESGGGEVQPGGSLRLSCAASGFIFSSYAMGWYRQAPGKQRELVAGFTGDTNTIYAESVKGRFTISRDNAKNTVYLQMSSLRAEDTAVYYCAADVQLFSRDYEFYWGQGTLVTVKP
notes: as for B1
B6: binds [1].

B7: hz10E5v1 (Fc fusion)
VHH: EVQLVESGGGEVQPGGSLRLSCAASGFTLDDYTIGWFRQAPGKEREGVSCISSSGGSTYYAESVKGRFTISRDNAKNTLYLQMSSLRAEDTAVYYCATYCPVVVGPELGYDYWGQGTLVTVKP
notes: as for B1
In the case of B7, the “EC50 (read off the curve)” value [2] is reported as about 5 nM.

B8: hz10E5v3 (Fc fusion)
VHH: EVQLVESGGGEVQPGGSLRLSCAASGFTLDDYTIGWFRQAPGKEREGVSCISSSGGSTYYAESVKGRFTISRDNAKNTLYLQMNDLRAEDTAVYYCATYCPVVVGPELGYDYWGQGTLVTVKP
notes: as for B1
In the case of B8, the “EC50 (read off the curve)” value [2] is reported as about 7 nM.

B9: L10E5 (Fc fusion)
VHH: EVQLVQSGGGLVQPGGSLRLSCAASGFTLDDYTIGWFRQFPGKEREGVSCISSSGGSTYYADSVKGRFTISRDNAKNTVWLQMNDLKSEDTAIYYCATYCPVVVGPELGYDYWGQGTQVTVKP
notes: as for B1
With B9 the “EC50 (read off the curve)” value [2] was about 3 nM.

B10: hz10E5v4 (Fc fusion)
VHH: EVQLVESGGGEVQPGGSLRLSCAASGFTLDDYTIGWFRQAPGKEREGVSCISSSGGSTYYAESVKGRFTISRDNAKNTLYLQMSSLKSEDTAIYYCATYCPVVVGPELGYDYWGQGTLVTVKP
notes: as for B1
For B10, the “EC50 (read off the curve)” value [2] was about 10 nM.

B11: hz10E5v5 (Fc fusion)
VHH: EVQLVESGGGEVQPGGSLRLSCAASGFTLDDYTIGWFRQFPGKEREGVSCISSSGGSTYYAESVKGRFTISRDNAKNTLYLQMSSLRAEDTAVYYCATYCPVVVGPELGYDYWGQGTLVTVKP
notes: as for B1
In the case of B11, the “EC50 (read off the curve)” value [2] is reported as about 7 nM.

B12: hz10E5v2 (Fc fusion)
VHH: EVQLVESGGGEVQPGGSLRLSCAASGFTLDDYTIGWFRQAPGKEREGVSCISSSGGSTYYAESVKGRFTISRDNAKNTVWLQMSSLRAEDTAVYYCATYCPVVVGPELGYDYWGQGTLVTVKP
notes: as for B1
In the case of B12, the “EC50 (read off the curve)” value [2] is reported as about 7 nM.

B13: hz5A8v2 (Fc fusion)
VHH: EVQLVESGGGEVQPGGSLRLSCAASGSIFSINAMGWYRQAPGKQRELVAVVSSDGRTTVAPSVKGRFTISRDNAKNTVYLQMSSLRAEDTAVYYCGVREWYSDSDWRDYEGQGTLVTVKP
notes: as for B1
B13: binds [2].

B14: hz5A8v6 (Fc fusion)
VHH: EVQLVESGGGEVQPGGSLRLSCAASGSIFSINAMGWYRQAPGKQRELVAVVSSEGRTTVAPSVKGRFTISRDNAKNTVYLQMSSLRAEDTAVYYCGVREWYSDSDWRDYEGQGTLVTVKP
notes: as for B1
B14: binds [2].

B15: hz5A8v7 (Fc fusion)
VHH: EVQLVESGGGEVQPGGSLRLSCAASGSIFSINAMGWYRQAPGKQRELVAVVSSDARTTVAPSVKGRFTISRDNAKNTVYLQMSSLRAEDTAVYYCGVREWYSDSDWRDYEGQGTLVTVKP
notes: as for B1
B15: binds [2].

B16: hz5A8v9 (Fc fusion)
VHH: EVQLVESGGGEVQPGGSLRLSCAASGSIFSINAMGWYRQAPGKQRELVAVVSSDGRTTVAPSVKGRFTISRDNAKNTVYLQMSSLRAEDTAVYYCGVREWYSESDWRDYEGQGTLVTVKP
notes: as for B1
B16: binds [2].

B17: hz5A8v3 (Fc fusion)
VHH: EVQLVESGGGEVQPGGSLRLSCAASGSIFSINAMGWYRQVLGKQRELVAVVSSDGRTTVAPSVKGRFTISRDNAKNTVYLQMSSLRAEDTAVYYCGVREWYSDSDWRDYEGQGTLVTVKP
notes: as for B1
B17: binds [2].

B18: hz5A8v8 (Fc fusion)
VHH: EVQLVESGGGEVQPGGSLRLSCAASGSIFSINAMGWYRQAPGKQRELVAVVSSDGRTTVAPSVKGRFTISRDNAKNTVYLQMSSLRAEDTAVYYCGVREWYSDADWRDYEGQGTLVTVKP
notes: as for B1
B18: binds [2].

B19: hz5A8v1 (Fc fusion)
VHH: EVQLVESGGGEVQPGGSLRLSCAASGSIFSINAMGWYRQAPGKQRELVAVVSSDGRTTVAESVKGRFTISRDNAKNTVYLQMSSLRAEDTAVYYCGVREWYSDSDWRDYEGQGTLVTVKP
notes: as for B1
In the case of B19, the “EC50 (read off the curve)” value [2] is reported as about 2 nM.

B20: hz5A8v4 (Fc fusion)
VHH: EVQLVESGGGEVQPGGSLRLSCAASGSIFSINAMGWYRQAPGKQRELVAVVSSDGRTTVAPSVKGRFTISRDNAKNTVSLQMSSLRAEDTAVYYCGVREWYSDSDWRDYEGQGTLVTVKP
notes: as for B1
B20: binds [2].

B21: hz6C5v6 (Fc fusion)
VHH: EVQLVESGGGEVQPGGSLRLSCAASEITFSDKTVGWYRQAPGKQRVLVAVISNVDATNYAESVKGRFTISRDNAKNTVYLQMSSLRAEDTAVYYCHARDFENEYWGQGTLVTVKP
notes: as for B1
B21: binds [1].

B22: hz8E7v12 (Fc fusion)
VHH: EVQLVESGGGEVQPGGSLRLSCGPSEIITSDKSVGWWRQAPGKGRELVAGISNVGSTNYAQSVKGRFTISRDNAKNTLYLQMSSLRAEDTAVYYCYARDFENEYWGQGTLVTVKP
notes: as for B1
B22: binds [1].

B23: hz8E7v14 (Fc fusion)
VHH: EVQLVESGGGEVQPGGSLRLSCGPSEIITSDKSVGWVRQAPGKQRNLVAGISNVGSTNYAQSVKGRFTISRDNAKNTVYLQMSSLRAEDTAVYYCYARDFENEYWGQGTLVTVKP
notes: as for B1
B23: binds [1].

B24: hz8E7v13 (Fc fusion)
VHH: EVQLVESGGGEVQPGGSLRLSCGPSEIITSDKSMGWWRQAPGKQRNLVAGISNVGSTNYAQSVKGRFTISRDNAKNTVYLQMSSLRAEDTAVYYCYARDFENEYWGQGTLVTVKP
notes: as for B1
B24: binds [1].
